Measured values reported in patent publication US20230227514A1, “BETA-ARRESTIN COMPOSITIONS AND ASSOCIATED METHODS” (Duke University, priority 2020, published 2023).

Assays:
[1] = target: T1, D2 dopamine receptor (D2R) (Homo sapiens, UniProt P14416); test: BRET dose-response assay of βarrestin2 construct recruitment to D2R-RlucII; type: cell-based; settings: D2R-RlucII with YFP constructs; dopamine 15 min; compared with YFP-βarrestin2
T1 construct: expressed in transfected cells
Procedure: HEK-293 cells were transiently transfected with D2R-RlucII along with YFP-βarr2-WT, YFP-βarr2-SUMO1 or YFP-βarr2-Ub and incubated with the indicated concentrations of dopamine for 15 min. BRET signals were measured as described in Example 1 herein, and changes following agonist treatment are expressed as a percentage of the BRET signal observed in unstimulated cells (top panel). […] The histogram (bottom panel) represents Bmax values of agonist induced BRET as means±SEM of 4 independent experiments performed in duplicates. Significance of changes in energy transfer was established by one-way ANOVA comparing signals measured for the recruitment of βarr2 fusion proteins to D2R-RlucII *p<0.01; **p<0.001.
BRET assays. […] BRET readings were acquired using Synergy Neo2 plate reader and obtained 5 min after manual addition of Rluc substrate, coelenterazine h (Promega) to a final concentration of 5 μM.
The BRET signal generated was determined by calculating the ratio of light emitted by YFP (520-550 nm) over the light emitted by Rluc (440-480 nm). These values were then corrected by subtracting the background signal (detected when the Rluc-tagged construct was expressed without acceptor) from the BRET signal detected in cells co-expressing both donor and acceptor constructs. […]

[2] = target: T2, D1 dopamine receptor (D1R) (Homo sapiens, UniProt P21728); test: Confocal trafficking and colocalization with D1R; type: cell-based; settings: HEK-293 cells with stable D1R expression; dopamine 15 minutes
T2 construct: expressed in transfected cells
Procedure: Immunostaining and confocal microscopy. […] Twenty-four hours post-transfection, cells were serum-starved for 4 h, and either left untreated or treated with respective agonists for the indicated times in the Figure descriptions. After stimulation, cells were fixed with 5% formaldehyde diluted in phosphate-buffered saline (PBS), permeabilized with 0.1% Triton in PBS containing 2% bovine serum albumin for 20 min and incubated at room temperature with appropriate primary antibody. The next day, cells were washed three times with PBS and incubated with Alexa594 conjugated secondary antibody for 1 h, followed by repeated washes using PBS. Confocal images were acquired using Zeiss LSM510 laser-scanning microscope using multitrack sequential with excitation (488 and 568 nm) and emission (BP 505-550 nm and LP 585 nm) filter sets. Images (1024×1024 pixels) were collected using either a 63× or 100× oil immersion lens. Images were processed for Figure presentation using Adobe Photoshop software, and any increase or decrease of brightness/contrast was applied to the entire image. The nuclear rim localization of YFP-βarrestin2-SUMO1 is readily visualized in cells with low to moderate expression of YFP-protein. In cells with high expression, this localization is present, and can be discerned by enlarging sections of the nuclear rim. […]

RanGAP1 = target: T3, RanGAP1 (Homo sapiens, UniProt P46060); test: Co-immunoprecipitation of YFP-βarrestin2 constructs with endogenous RanGAP1; type: binding; settings: IP of YFP proteins, probed for RanGAP1
T3 construct: endogenous in cells; host or cells: HEK-293T / HEK-293
Description: HEK-293T cells were transiently transfected with indicated plasmids and subjected to coimmunoprecipitation with GFP IgG (3E6, Thermo Fisher) to immunoprecipitate YFP-βarrestin2 or YFP-βarrestin2-SUMO1 (“IP: YFP”). IPs were probed for endogenous RanGAP1, and for βarrestins. Cell lysates were also blotted to determine total cell protein levels (“Lysates”). Blots shown are from one of three independent experiments.

T3 sequence (P46060 2-587 limits assumed): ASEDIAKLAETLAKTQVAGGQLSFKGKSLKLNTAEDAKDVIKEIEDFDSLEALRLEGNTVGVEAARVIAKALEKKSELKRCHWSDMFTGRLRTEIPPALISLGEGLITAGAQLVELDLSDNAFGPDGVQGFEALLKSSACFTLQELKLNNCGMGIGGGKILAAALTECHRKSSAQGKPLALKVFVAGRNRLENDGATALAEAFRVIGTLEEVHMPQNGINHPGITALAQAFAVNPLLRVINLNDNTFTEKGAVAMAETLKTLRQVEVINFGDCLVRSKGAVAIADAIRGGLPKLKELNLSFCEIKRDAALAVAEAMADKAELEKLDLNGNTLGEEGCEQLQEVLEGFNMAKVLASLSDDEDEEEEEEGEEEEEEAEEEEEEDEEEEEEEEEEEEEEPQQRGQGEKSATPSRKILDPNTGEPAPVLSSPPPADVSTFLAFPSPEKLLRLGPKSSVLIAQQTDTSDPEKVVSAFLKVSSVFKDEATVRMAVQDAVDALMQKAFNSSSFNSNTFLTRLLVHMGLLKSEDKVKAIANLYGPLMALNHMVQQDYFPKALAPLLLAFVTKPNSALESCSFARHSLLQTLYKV
T3 sequence (P63165 2-97 partner limits assumed): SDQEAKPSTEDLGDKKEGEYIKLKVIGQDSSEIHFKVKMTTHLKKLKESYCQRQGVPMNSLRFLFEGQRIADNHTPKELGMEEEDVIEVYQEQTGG
T1 sequence (P14416 whole entry): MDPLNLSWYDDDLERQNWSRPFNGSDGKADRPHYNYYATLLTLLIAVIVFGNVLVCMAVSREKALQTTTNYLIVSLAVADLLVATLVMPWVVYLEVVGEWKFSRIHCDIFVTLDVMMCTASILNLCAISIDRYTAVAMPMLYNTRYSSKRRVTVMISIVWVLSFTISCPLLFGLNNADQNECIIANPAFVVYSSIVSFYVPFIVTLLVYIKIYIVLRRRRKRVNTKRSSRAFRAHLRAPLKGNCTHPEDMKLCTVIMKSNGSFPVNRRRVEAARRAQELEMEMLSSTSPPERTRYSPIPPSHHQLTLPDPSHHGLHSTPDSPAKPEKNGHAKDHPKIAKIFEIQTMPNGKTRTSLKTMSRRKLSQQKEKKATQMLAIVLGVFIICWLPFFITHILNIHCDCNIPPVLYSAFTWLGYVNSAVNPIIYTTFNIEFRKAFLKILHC
T2 sequence (P21728 whole entry): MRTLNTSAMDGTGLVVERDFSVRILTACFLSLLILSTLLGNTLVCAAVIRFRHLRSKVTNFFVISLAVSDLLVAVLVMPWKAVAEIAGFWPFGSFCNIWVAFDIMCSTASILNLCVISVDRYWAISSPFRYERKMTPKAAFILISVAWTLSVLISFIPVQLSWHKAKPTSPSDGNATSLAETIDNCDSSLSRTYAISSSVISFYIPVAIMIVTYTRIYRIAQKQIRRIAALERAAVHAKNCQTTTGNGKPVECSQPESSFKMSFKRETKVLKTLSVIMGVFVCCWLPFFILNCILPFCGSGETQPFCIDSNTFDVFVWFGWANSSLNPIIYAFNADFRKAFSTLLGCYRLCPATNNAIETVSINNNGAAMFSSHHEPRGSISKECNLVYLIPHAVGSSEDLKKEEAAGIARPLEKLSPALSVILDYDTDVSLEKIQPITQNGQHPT

## βarrestin2-SUMO1: rat βarrestin2 polypeptide fused to human SUMO1 (SEQ ID NO:1); used YFP- or Flag-tagged
[1]
  agonist-mediated increase in energy transfer (net BRET) with D2R: greater
[2]
  association with D1R after dopamine activation (confocal): strongly and stably
RanGAP1
  association with endogenous RanGAP1 forms by co-immunoprecipitation: associated only with SUMO-RanGAP1
